Read-outs that look alike come from different tables or passages of the source.

From patent publication CN111196850A come the findings set out here.

The target of assay [1] is rhTSLP-hFc (human). As to the kind of experiment: cell-based or functional assay.
For assay [2], the target named is rhTSLP-hFc (human). As to the kind of experiment: cell-based or functional assay. This is another data set of the same source.

Chain of rhTSLP-hFc (human) (chain, as listed by the source limits assumed): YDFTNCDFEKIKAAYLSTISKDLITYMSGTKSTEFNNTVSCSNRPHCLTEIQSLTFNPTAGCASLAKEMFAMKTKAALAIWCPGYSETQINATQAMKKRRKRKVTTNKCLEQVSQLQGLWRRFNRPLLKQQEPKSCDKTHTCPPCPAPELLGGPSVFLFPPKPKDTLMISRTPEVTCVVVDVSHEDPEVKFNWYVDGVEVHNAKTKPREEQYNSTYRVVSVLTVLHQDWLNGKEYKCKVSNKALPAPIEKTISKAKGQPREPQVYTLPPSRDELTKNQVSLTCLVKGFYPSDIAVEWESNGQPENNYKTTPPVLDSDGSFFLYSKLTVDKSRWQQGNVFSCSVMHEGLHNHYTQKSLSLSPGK

Regarding “人TSLP单抗Tezepelumab/MEDI9929(Amgen) (antibody)”, the IC50, 抑制TSLP刺激的293F转染细胞STAT5-荧光素酶活性 with rhTSLP-hFc (human) [1] was 7.04 mg/L; with rhTSLP-hFc (human) [2], 5.72 mg/L.
